Stoichiometry N data for one substance are collected here from PMC3628942.

By stoichiometry N is commonly meant a count of units in the complex or per binding partner.

In the experiment the target is Bombyx mori lipoprotein 3 (Bombyx mori) (UniProt Q00802). The experiment in a line: crystal structure; crystal form Bmlp3-c2, space group C2, two molecules in the asymmetric unit; grown in 2.0 M ammonium sulfate, 0.1 M ammonium iodide, pH 5.5, 20°C; an iodide anion lies in the centre of the dimer interface.

As to “Bombyx mori lipoprotein 3 (from UniProt Q00802 18-256) (natural protein)”, the stoichiometry N was determined as 2.
